One data set concerns the target T1, MpGSMT (Methanohalophilus portucalensis, UniProt F6KV61).
T1 construct: gene gsmt; full length, 263 residues, 29,040 Da calculated (35 kD on SDS-PAGE)
T1 sequence (F6KV61 1-263): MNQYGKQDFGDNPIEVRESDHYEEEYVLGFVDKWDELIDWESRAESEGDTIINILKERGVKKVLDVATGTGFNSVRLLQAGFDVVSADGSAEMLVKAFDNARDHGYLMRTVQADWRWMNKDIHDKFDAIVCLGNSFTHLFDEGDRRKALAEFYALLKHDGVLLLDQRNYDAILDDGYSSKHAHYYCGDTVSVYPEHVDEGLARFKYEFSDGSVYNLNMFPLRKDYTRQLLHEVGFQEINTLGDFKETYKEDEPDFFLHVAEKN
In words: radiometric acid-washed charcoal methyltransferase assay. The data set is classed as biochemical. The source says: radiometric acid-washed charcoal methyltransferase assay on MpGSMT

A further data set addresses T2, MpSDMT (Methanohalophilus portucalensis, UniProt F6KV62).
T2 construct: gene SAMN06264941_0526; full length, 278 residues, 30,690 Da calculated (38 kD on SDS-PAGE)
T2 sequence (F6KV62 1-278): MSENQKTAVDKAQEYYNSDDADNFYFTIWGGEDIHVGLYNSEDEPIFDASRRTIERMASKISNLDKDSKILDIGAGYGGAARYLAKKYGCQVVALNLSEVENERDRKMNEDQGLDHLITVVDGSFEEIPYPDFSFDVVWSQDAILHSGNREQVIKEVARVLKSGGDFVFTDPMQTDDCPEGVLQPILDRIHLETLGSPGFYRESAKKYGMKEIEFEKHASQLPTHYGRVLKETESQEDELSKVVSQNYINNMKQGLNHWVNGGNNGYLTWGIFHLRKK
Described as above. The data set is classed as biochemical. The following applies: read-out: I50 AdoHcy. The source says:
radiometric acid-washed charcoal methyltransferase assay on MpSDMT

Substrate in data set [1]: CNCC(=O)O
The description is as above. The data set is classed as biochemical, Methanohalophilus portucalensis. The following applies: SMT activity, co-substrate AdoMet, TES pH 7.3, 37 °C (text b54 prints a different Km, equal to that of the native enzyme in the table).

Substrate in data set [2]: CN(C)CC(=O)O
The data set is described as above. The following applies: DMT activity, co-substrate AdoMet, TES pH 7.3, 37 °C (text b54 prints a different Km, equal to that of the native enzyme in the table). The data set is classed as biochemical, Methanohalophilus portucalensis.

Substrate in the data set “purified protein”: C[S+](CC[C@H](N)C(=O)O)C[C@H]1O[C@@H](n2cnc3c(N)ncnc32)[C@H](O)[C@@H]1O
The data set can be described thus: purified protein. The following applies: TES pH 7.3, 37 °C, labelled compound.

Data set [3] deals with the molecule itself. The data set can be described thus: AUC; sedimentation velocity, 0.70 mg/ml MpGSMT in 0.1 M TES buffer (pH 7.3) with 0 to 2.0 M KCl, 20°C, 42,000 rpm, SEDFIT 9.4c; monomer to dimer.

4 molecules from publication PMC3176816, “Characterization and Regulation of the Osmolyte Betaine Synthesizing Enzymes GSMT and SDMT from Halophilic Methanogen Methanohalophilus portucalensis” (PLoS ONE, 2011) can be followed below.

With `C[N+](C)(C)CC(=O)[O-]` [betaine], on MpGSMT (read-out: Relative activity (%) / Betaine / 1 M), the activity at 1 M came to 30%.
With `Nc1ncnc2c1ncn2[C@@H]1O[C@H](CSCC[C@H](N)C(=O)O)[C@@H](O)[C@H]1O` [AdoHcy], the IC50 at MpSDMT was 150 µM; at MpGSMT (read-out: I50 AdoHcy) it was 70 µM.

B1: MpSDMT (Methanohalophilus portucalensis FDF-1) (protein)
chain: T2 sequence (F6KV62 1-278)
notes: full length, 278 residues, 30,690 Da calculated (38 kD on SDS-PAGE)
For the molecule B1, the Km (in general, the concentration of substrate that gives half-maximal velocity) is 0.66 mM in data set [1]; 0.66 mM in data set [2]; 0.50 mM in the data set “purified protein” (SMT activity, methyl acceptor sarcosine).

B2: Methanohalophilus portucalensis glycine sarcosine methyltransferase (recombinant MpGSMT) (enzyme, UniProt F6KV61 1-263, looked up)
chain: T1 sequence (F6KV61 1-263)
notes: glycine sarcosine methyltransferase (GSMT) of Methanohalophilus portucalensis strain FDF1T; complete Mpgsmt gene, 792 bp, 263 amino acids, GenBank HQ634197; The tag is inferred from the vector and the Ni Sepharose purification; source: E. coli BL21(DE3)RIL, pET28a, purified (Ni Sepharose 6 Fast Flow)
As to B2, the stoichiometry N (in general, the number of molecules, sites or subunits per partner or assembly) in data set [3] is 2. Further, in the data set “purified protein” (GMT activity, methyl acceptor glycine), the Km worked out at 8.26 mM.
